Reference: US20100239597A1
Residue numbers refer to the chain shown, from its start.

B1: 20C2-6B IgG1 (antibody, V domains shown)
VH: QVTLKESGPALVKPTQTLTLTCTLSGFSLSTSGMGVGWIRQPPGKALEWLAHIWWDDDKSYNPSLKSRLTISKDTSKNQVVLTMTNMDPVDTATYYCARRQLGLRSIDAMDYWGQGTTVTVSS
VL: DVVMTQSPLSLPVTPGEPASISCRSSQSILHSNGNTYLEWYLQKPGQSPQLLIYKVSNRFSGVPDRFSGSGSGTDFTLKISRVEAEDVGVYYCFQSSRVPLTFGQGTKLEIK
B2: 20C2-8B IgG1 (antibody, V domains shown)
VH: B1 VH
VL: B1 VL with F94L, S96T, S97T

Key:
biotin-Aβ1-20 [1] = target: biotin-Aβ1-20 (UniProt P05067); experiment: BIACORE, biotin-Aβ1-20 as antigen; IgG1#1
[2] = target: biotinylated ADDL (bADDL) (UniProt P05067); experiment: BIACORE, bADDL as antigen; IgG1#1
[3] = target: biotinylated ADDL (bADDL) (UniProt P05067); experiment: BIACORE, bADDL as antigen; IgG1#2
biotin-Aβ1-20 [4] = target: biotin-Aβ1-20 (UniProt P05067); experiment: BIACORE, biotin-Aβ1-20 as antigen; IgG1#2

| Binder | Kd (biotin-Aβ1-20 [1]) [nM] | Kd [2] [nM] | Kd [3] [pM] | Kd (biotin-Aβ1-20 [4]) [nM] |
| --- | --- | --- | --- | --- |
| B1 | 0.053 | 0.053 |  |  |
| B2 | 0.046 | 0.013 | 0.8 | 0.064 |
